Two substances from IntAct's records for PubMed 20133654 can be followed below.

One experiment has as its target obsl1_human OBSL1 (UniProt O75147).
A further experiment concerns the target obscn_human OBSCN (UniProt Q5VST9).

Sequence of obsl1_human OBSL1 (O75147 whole entry): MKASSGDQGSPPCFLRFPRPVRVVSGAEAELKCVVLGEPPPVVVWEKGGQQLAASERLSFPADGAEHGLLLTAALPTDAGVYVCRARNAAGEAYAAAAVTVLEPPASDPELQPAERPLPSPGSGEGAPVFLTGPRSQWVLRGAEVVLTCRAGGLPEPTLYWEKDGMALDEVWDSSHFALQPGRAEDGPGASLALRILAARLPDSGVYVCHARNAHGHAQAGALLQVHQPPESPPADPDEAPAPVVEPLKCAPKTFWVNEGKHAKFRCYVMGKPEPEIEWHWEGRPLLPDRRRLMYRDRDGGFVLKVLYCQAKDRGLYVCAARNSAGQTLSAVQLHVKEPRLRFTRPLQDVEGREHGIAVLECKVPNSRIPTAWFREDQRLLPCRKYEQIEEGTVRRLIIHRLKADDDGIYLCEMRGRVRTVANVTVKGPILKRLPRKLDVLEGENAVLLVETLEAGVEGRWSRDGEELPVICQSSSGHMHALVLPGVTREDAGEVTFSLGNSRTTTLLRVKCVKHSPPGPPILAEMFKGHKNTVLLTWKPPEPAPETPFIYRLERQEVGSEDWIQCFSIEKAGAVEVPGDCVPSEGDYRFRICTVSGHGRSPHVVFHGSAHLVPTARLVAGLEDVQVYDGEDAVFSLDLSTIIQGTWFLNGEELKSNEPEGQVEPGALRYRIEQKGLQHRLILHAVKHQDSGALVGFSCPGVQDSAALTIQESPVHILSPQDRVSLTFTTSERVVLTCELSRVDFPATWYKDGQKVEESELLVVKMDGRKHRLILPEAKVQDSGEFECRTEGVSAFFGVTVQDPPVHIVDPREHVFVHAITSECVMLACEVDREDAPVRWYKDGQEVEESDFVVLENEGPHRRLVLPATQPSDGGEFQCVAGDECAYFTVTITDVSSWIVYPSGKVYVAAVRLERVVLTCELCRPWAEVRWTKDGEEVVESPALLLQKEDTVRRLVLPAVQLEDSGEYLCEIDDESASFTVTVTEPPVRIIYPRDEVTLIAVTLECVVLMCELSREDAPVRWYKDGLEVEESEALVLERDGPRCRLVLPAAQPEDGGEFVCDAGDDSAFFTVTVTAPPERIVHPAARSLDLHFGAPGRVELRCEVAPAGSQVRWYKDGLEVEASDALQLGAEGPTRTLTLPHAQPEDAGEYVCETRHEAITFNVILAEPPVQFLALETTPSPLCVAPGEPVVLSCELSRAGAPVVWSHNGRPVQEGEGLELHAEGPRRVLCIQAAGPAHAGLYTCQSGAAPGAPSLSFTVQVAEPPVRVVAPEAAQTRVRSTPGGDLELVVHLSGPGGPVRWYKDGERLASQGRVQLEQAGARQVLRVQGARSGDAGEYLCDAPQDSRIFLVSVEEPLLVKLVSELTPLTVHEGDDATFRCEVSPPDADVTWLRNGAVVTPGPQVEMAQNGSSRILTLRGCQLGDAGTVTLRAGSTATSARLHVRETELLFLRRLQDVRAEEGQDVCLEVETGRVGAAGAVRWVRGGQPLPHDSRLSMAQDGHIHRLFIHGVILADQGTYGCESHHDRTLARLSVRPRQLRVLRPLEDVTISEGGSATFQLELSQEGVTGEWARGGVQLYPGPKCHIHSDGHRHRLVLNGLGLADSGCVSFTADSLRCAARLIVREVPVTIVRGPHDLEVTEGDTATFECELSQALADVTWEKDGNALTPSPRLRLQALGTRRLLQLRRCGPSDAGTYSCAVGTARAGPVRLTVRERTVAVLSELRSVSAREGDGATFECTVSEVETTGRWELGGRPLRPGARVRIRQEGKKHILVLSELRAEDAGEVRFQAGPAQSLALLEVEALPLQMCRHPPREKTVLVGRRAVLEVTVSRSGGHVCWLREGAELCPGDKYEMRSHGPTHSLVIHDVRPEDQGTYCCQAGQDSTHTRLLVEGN

For Titin (Homo sapiens), Q8WZ42 A34260Y, the “effect of a mutation on the interaction” value with obsl1_human OBSL1 and in the experiment with obscn_human OBSCN was “disrupting interaction” throughout. Take Titin (Homo sapiens), Q8WZ42 I34306N: the “effect of a mutation on the interaction” value with obscn_human OBSCN is on record as “increasing interaction”.
